The record followed here is publication PMC7955952.

Substrate in the data set: Nc1ncnc2c1ncn2[C@@H]1O[C@H](COP(=O)(O)OP(=O)(O)OP(=O)(O)O)[C@@H](O)[C@H]1O
In words: Michaelis–Menten saturation kinetics. Type of data set: biochemical, Homo sapiens. The following applies: Mn2+ ATP-binding pocket.

B1: Focal adhesion kinase (FAK) (Homo sapiens) (protein)
chain: ETDDYAEIIDEEDTYTMPSTRDYEIQRERIELGRCIGEGQFGDVHQGIYMSPENPALAVAIKTCKNCTSDSVREKFLQEALTMRQFDHPHIVKLIGVITENPVWIIMELCTLGELRSFLQVRKYSLDLASLILYAYQLSTALAYLESKRFVHRDIAARNVLVSSNDCVKLGDFGLSRYMEDSTYYKASKGKLPIKWMAPESINFRRFTSASDVWMFGVCMWEILMHGVKPFQGVKNNDVIGRIENGERLPMPPNCPPTLYSLMTKCWAYDPSRRPRFTELKAQLSTILEEEKAQQEERMRMESRRQ
For orientation: Km means the substrate concentration at which the rate is half of its maximum. In the case of B1, the Km was 6.4 ± 1.2 µM.
